In patent US20240059797A1 (GRITSTONE BIO, published 2024):

Columns and labels:
[1] = target: T1, HLA-A*01:01_… (HLA-PEPTIDE target G2), recombinant biotinylated complex (human, enzymatically biotinylated (BirA)); test: BLI
T1 construct: also called G2-pHLA

[2] = target: T2, HLA-A*01:01_… (G2) presented on cells (human); test: flow cytometry, peptide-pulsed K562 cells
T2 construct: whole, on cells; K562 transduced with HLA-A*01:01 and pulsed with peptide, or A375 transduced with a 10x peptide cassette; also called G2 on K562 or A375 cells
Procedure: Cells were harvested, washed in PBS, and stained with eBioscience Fixable Viability Dye eFluor 450 for 15 minutes at room temperature. Following another wash in PBS+2% FBS, cells were resuspended with bispecifics at varying concentrations. Cells were incubated with bispecifics for 1 hour at 4° C. […] After incubating at 4° C. for 45 minutes and washing in PBS+2% FBS, cells were resuspended in PBS+2% FBS and analyzed by flow cytometry. […] All cell lines were stained and analyzed with bispecific binding using the same methods as the K562 cells.
Flow cytometric analysis was performed on the Attune NxT Flow Cytometer (ThermoFisher) using the Attune NxT Software. Data was analyzed using FlowJo.

binding result [1]: binds
binding result [2]: binds
B1: 4-anti-CD3-G2(1H11) (bispecific antibody)
chain: not shown
heavy: QVQLVQSGAEVKKPGASVKVSCKASGYTFTNYYMHWVRQAPGQGLEWMGMINPSGGGTSYAQKFQGRVTMTRDTSTSTVYMELSSLRSEDTAVYYCARGNPWELRLDYWGQGTLVTVSSGGGGSGGGGSGGGGSGGGGSDIQMTQSPSSLSASVGDRVTITCQASQDISNYLNWYQQKPGKAPKLLIYAASSLQSGVPSRFSGSGSGTDFTLTISSLQPEDFATYYCQQYYSYPFTFGPGTKVDIKGGGGSGGGGSEVQLVESGGGLVQPGGSLRLSCAASGFTFSTYAMNWVRQAPGKGLEWVGRIRSKYNNYATYYADSVKGRFTISRDDSKNTLYLQMNSLRAEDTAVYYCVRHGNFGDSYVSWFAYWGQGTLVTVSSASTKGPSVFPLAPSSKSTSGGTAALGCLVKDYFPEPVTVSWNSGALTSGVHTFPAVLQSSGLYSLSSVVTVPSSSLGTQTYICNVNHKPSNTKVDKRVEPKSCDKTHTCPPCPAPELLGGPSVFLFPPKPKDTLMISRTPEVTCVVVDVSHEDPEVKFNWYVDGVEVHNAKTKPREEQYQSTYRVVSVLTVLHQDWLNGKEYKCKVSNKALPAPIEKTISKAKGQPREPQVCTLPPSREEMTKNQVSLSCAVKGFYPSDIAVEWESNGQPENNYKTTPPVLDSDGSFFLVSKLTVDKSRWQQGNVFSCSVMHEALHNRFTQKSLSLSPGK
light: QAVVTQEPSLTVSPGGTVTLTCGSSTGAVTTSNYANWVQQKPGKSPRGLIGGTNKRAPGVPARFSGSLLGGKAALTISGAQPEDEADYYCALWYSNHWVFGGGTKLTVLRTVAAPSVFIFPPSDEQLKSGTASVVCLLNNFYPREAKVQWKVDNALQSGNSQESVTEQDSKDSTYSLSSTLTLSKADYEKHKVYACEVTHQGLSSPVTKSFNRGEC
notes: also called 4-G2(1H11)-αCD3
